Measured values taken from doi:10.1101/419721 (bioRxiv, 2018).
No end group written: not given here.

T1: PDZ domain of ARHGEF12 (MBP-PDZ) (human, UniProt Q9NZN5 72-151)
T1 sequence: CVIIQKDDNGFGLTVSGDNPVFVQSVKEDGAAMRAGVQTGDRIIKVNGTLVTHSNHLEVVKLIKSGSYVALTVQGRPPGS

T2: PDZ domain of SYNJ2BP (MBP-PDZ) (human, UniProt P57105 13-100)
T2 sequence: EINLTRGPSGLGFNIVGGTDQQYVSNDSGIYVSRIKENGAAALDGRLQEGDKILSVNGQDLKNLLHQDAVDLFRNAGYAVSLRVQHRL

B1: unphosphorylated RSK1 683-735 peptide (peptide)
peptide: QSQLSHQDLQLVKGAMAATYSALNSSKPTPQLKPIESSILAQRRVRKLPSTTL
B2: phosphorylated RSK1 683-735 peptide (peptide)
peptide: QSQLSHQDLQLVKGAMAATYSALNSSKPTPQLKPIESSILAQRRVRKLPSTTL
modifications: also: phosphorylated, sites not given here

Experiments:
[1] = target: T1, PDZ domain of ARHGEF12 (MBP-PDZ); assay: ITC
[2] = target: T2, PDZ domain of SYNJ2BP (MBP-PDZ); assay: ITC

Binder | binding result [1] | binding result [2]
B1 | binds | binds
B2 | – | binds
